Source: PMC12339742

Experiment: turbidity assay; turbidity at 600 nm against protein concentration; 20 mM Tris-HCl, 150 mM NaCl pH 8.0, 20% (w/v) PEG2k; 96-well plate, quadruplicate; self-assembly into condensates
Details: other: turbidity assay

Row | Substance | inflection of turbidity against protein concentration
1 | PduP encapsulation peptide with its native linker fused to the N-terminus of mNeonGreen | 33.1 µM ± 0.4 µM
2 | Three serial repeats of the PduP EP and its native linker fused to the N-terminus of mNeonGreen | 19.7 µM
3 | Two serial repeats of the PduP EP and its native linker fused to the N-terminus of mNeonGreen | 15.5 µM
